Substitutions are numbered along the chain they refer to. Numbers in names are those of the source. Read-outs that look alike come from different tables or passages of the source.

Data set [1] deals with the molecule itself. The experiment in a line: SEC-MALS.
Data set [2] deals with T1, SP_0782 (Streptococcus pneumoniae, UniProt A0A0H2UPA7 7-79). The data set can be described thus: ITC. Background: Isothermal titration calorimetry measures the heat released or taken up as one component is titrated into another.
Data set [3] has as its target T1, SP_0782. The experiment in a line: ITC. This is another data set of the same source.
Data set [4] deals with T1, SP_0782. The experiment in a line: X-ray crystallography.

B1: SP_0782 (7–79) W30A mutant (domain or fragment, Streptococcus pneumoniae, UniProt A0A0H2UPA7 7-79, looked up)
chain: KKMAEFTFEIEEHLLTLSENEKGATKEINRVSFNGAPAKFDIRAWSPDHTKMGKGITLSNEEFQTMVDAFKGN
On to B1, for which the “stoichiometry N” value in data set [1] is 2.

B2: SP_0782 (7–79) wild-type from Streptococcus pneumoniae (domain or fragment, UniProt A0A0H2UPA7 7-79, looked up)
chain: B1 chain with A24W
Consider B2, for which the “stoichiometry N” value in data set [1] is 2.

With TTTTTT (ssDNA) [dT6], the affinity in data set [2], expressed as Kd, was 26.8 µM.

Consider TTTTTTTTTTTT (ssDNA) [dT12], for which, in data set [3], the dissociation constant (Kd) came out at 0.0206 µM.

Regarding TCTTCC (ssDNA) [dTCTTCC], in data set [4], the binding result was “binds”.

As a reminder, the stoichiometry N is the number of molecules, sites or subunits per partner or assembly. Broadly, the Kd is the concentration at which binding is half-saturated. Read a high Kd as a looser complex.

The values are drawn from publication PMC7145681 (Nucleic Acids Research, 2019).
